The values that follow come from patent US20140302035A1 (MERRIMACK PHARMACEUTICALS, published 2014).

Test [1] has as its target T1, cMet-his (Homo sapiens (Human), UniProt P08581 25-933).
T1 construct: also called his tagged cMET; Recombinant polyhistidine-tagged c-Met
In words: BLI (ForteBio Octet), antibody loaded on Protein A tips, recombinant polyhistidine-tagged c-Met in solution, 1:1 model. How it is done: (§1) For Octet analysis, all reagents and samples are brought to room temperature. Protein A sensor tips (ForteBio, #18-5010) are hydrated for 10 minutes in 1×PBS. Assay steps include: 1-2 minutes of equilibration in 1×PBS, 4 minutes of antibody loading (concentration of 50 μg/ml in 1×PBS), 1-2 minutes of baseline stabilization, 4 minutes of antibody:antigen association, and 4 minutes of antibody:antigen dissociation. 1×PBS is used as the matrix throughout. Data are analyzed with Octet Data Analysis software, processed, and fit to a 1:1 binding model to determine kinetic parameters (Kd, kₒₙ and kdiss).
Table A-4 describes approximate c-Met binding affinity and dissociation rate as determined for Ab#5 and Ab#7.

Test [2] deals with T2, Human EpCAM-Fc-his tagged (human).
T2 construct: also called Recombinant polyhistidine-tagged EpCAM-Fc; recombinant EpCAM
In words: BLI (ForteBio Octet), antibody loaded on Protein A tips, recombinant polyhistidine-tagged EpCAM-Fc in solution, 1:1 model. On the procedure:
as §1
Table A-2 describes approximate EpCAM binding affinity and dissociation rate as determined for Ab#1, Ab#2, Ab#3, Ab#4, Ab#5, Ab#6, Ab#7, Ab#8, Ab#9, Ab#10, Ab#11, Ab#12, and Ab#13.

For test [3], the target named is T2, Human EpCAM-Fc-his tagged. In words: BLI (ForteBio Octet), repeat analysis, antibody on Protein A tips, recombinant polyhistidine-tagged EpCAM-Fc in solution, 1:1 model. On the procedure:
as §1
Table A-3 describes a repeat analysis for Ab#5, Ab#7, and Ab#13. For the repeat experiment, Kd and kdiss values for Ab#5, Ab#7, and Ab#13 are substantially equivalent to those determined for Ab#5, Ab#7, and Ab#13 in the initial experiment.

Test [4] concerns the target T1, cMet-his. In words: BLI (ForteBio Octet), antibody loaded on Protein A tips, his tagged cMET in solution, 1:1 model. On the procedure: Protocol: All reagents are equilibrated and samples are brought to room temperature. Protein A sensor tips (Fortebio, #18-5010) are hydrated for 10 min in 1×PBS. Kinetic assays are run using the Octet software and procedure per manufacturer's instruction. Assay steps typically include: 1-2 min of equilibration in 1×PBS, 4 min of antibody loading (conc: 50 μg/mL in 1×PBS), 1-2 min of baseline stabilization, 4 min of antibody:antigen association, and 4 min of antibody:antigen dissociation. 1×PBS is used as the matrix throughout. Data are analyzed with Octet Data Analysis software, processed, and fit to the curve using 1:1 binding model to determine kinetic parameters (Kₐ, Kₒₙ and Koff)

T2 sequence (chain, as listed by the source): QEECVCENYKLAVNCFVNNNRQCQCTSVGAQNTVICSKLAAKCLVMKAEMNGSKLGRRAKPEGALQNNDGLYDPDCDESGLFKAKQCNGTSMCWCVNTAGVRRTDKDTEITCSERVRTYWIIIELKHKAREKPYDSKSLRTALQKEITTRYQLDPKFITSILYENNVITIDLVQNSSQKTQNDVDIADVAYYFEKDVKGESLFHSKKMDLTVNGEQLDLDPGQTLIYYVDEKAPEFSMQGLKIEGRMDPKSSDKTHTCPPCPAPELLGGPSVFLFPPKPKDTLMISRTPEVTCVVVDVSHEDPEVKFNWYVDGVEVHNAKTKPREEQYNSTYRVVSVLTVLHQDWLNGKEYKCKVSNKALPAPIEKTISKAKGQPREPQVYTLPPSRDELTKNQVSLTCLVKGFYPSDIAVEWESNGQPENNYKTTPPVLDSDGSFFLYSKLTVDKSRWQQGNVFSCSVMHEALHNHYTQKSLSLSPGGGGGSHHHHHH

B1: Ab#5 (bispecific antibody, human IgG1, kappa)
heavy: QLQLQESGPGLVKPSETLSLTCTVSGGSISSSVYYWSWIRQPPGKGLEWIGVIYPSGNTYYSPSLKSRVTISVDTSKNQFSLKLSSVTAADTAVYYCARTIYDLFDIWGQGTMVTVSSASTKGPSVFPLAPSSKSTSGGTAALGCLVKDYFPEPVTVSWNSGALTSGVHTFPAVLQSSGLYSLSSVVTVPSSSLGTQTYICNVNHKPSNTKVDKKVEPKSCDKTHTCPSCPAPEFLGGPSVFLFPPKPKDTLMISRTPEVTCVVVDVSQEDPEVQFNWYVDGVEVHNAKTKPREEQFNSKYRVVSVLTVLHQDWLNGKEYKCKVSNKGLPSSIEKTISKAKGQPREPQVYTLPPSREEMTKNQVSLSCAVKGFYPSDIAVEWESNGQPENNYKTTPPVLDSDGSFFLVSKLTVDKSRWQQGNVFSCSVMHEALHNHYTQKSLSLSKSCDKTGGGGSGGGGSGGGGSGGGGSGGGGSGGGGSGGGGSGGGGSCPSCPAPEFLGGPSVFLFPPKPKDTLMISRTPEVTCVVVDVSQEDPEVQFNWYVDGVEVHNAKTKPREEQFNSDYRVVSVLTVLHQDWLNGKEYKCKVSNKGLPSSIEKTISKAKGQPREPQVYTLPPSREEMTKNQVSLWCLVKGFYPSDIAVEWESNGQPENNYKTTPPVLDSDGSFFLYSKLTVDKSRWQQGNVFSCSVMHEALHNHYTQKSLSLSGECGGGGSGGGGSDIVMTQSPLSLPVTPGEPASISCRSTKSLLHSNGITYLYWYLQKPGQSPQLLIYQMSNLASGVPDRFSSSGSGTDFTLKISRVEAEDEGVYYCAQNLEIPRTFGGGTKLEIKRTGGGGSGGGGSGGGGSGGGGSQVQLVQSGAEVKKPGESVKISCKASGYTFTNYGMNWVRQAPGQGLKWMGWINTYTGESTYADDFKGRFAFSLDTSASTAYLQLSSLRSEDTAVYFCARFAIKGDYWGQGTLVTVSS
light: DIQMTQSPSSVSASVGDRVTITCRASQGISSWLAWYQQKPGKAPKLLIYAASSLQSGVPSRFSGSGSGTDFTLTISSLQPEDFATYYCLQANSFPPTFGGGTKVEIKRTVAAPSVFIFPPSDEQLKSGTASVVCLLNNFYPREAKVQWKVDNALQSGNSQESVTEQDSKDSTYSLSSTLTLSKADYEKHKVYACEVTHQGLSSPVTKSFNRGEC
notes: Anti-c-Met Fab / tandem Fc / anti-EpCAM scFv TFcBA; also called Antibody #5
As to B1, the values for the Kd (in the test with cMet-his [1]; in test [2]; in test [3]) were 3.4 nM, 3.57 nM and 2.67 nM, respectively. Moreover, the results for the koff (in the test with cMet-his [1]; in test [2]; in test [3]) were 0.000588 s⁻¹, 0.000346 s⁻¹ and 0.000194 s⁻¹, respectively.

B2: Ab#13 (bispecific antibody)
heavy: QLQLQESGPGLVKPSETLSLTCTVSGGSISSSVYYWSWIRQPPGKGLEWIGVIYPSGNTYYSPSLKSRVTISVDTSKNQFSLKLSSVTAADTAVYYCARTIYDLFDIWGQGTMVTVSSASTKGPSVFPLAPSSKSTSGGTAALGCLVKDYFPEPVTVSWNSGALTSGVHTFPAVLQSSGLYSLSSVVTVPSSSLGTQTYICNVNHKPSNTKVDKKVEPKSCDKTHTCPSCPAPEFLGGPSVFLFPPKPKDTLMISRTPEVTCVVVDVSQEDPEVQFNWYVDGVEVHNAKTKPREEQFNSKYRVVSVLTVLHQDWLNGKEYKCKVSNKGLPSSIEKTISKAKGQPREPQVYTLPPSREEMTKNQVSLSCAVKGFYPSDIAVEWESNGQPENNYKTTPPVLDSDGSFFLVSKLTVDKSRWQQGNVFSCSVMHEALHNHYTQKSLSLSKSCDKTGGGGSGGGGSGGGGSGGGGSGGGGSGGGGSGGGGSGGGGSCPSCPAPEFLGGPSVFLFPPKPKDTLMISRTPEVTCVVVDVSQEDPEVQFNWYVDGVEVHNAKTKPREEQFNSDYRVVSVLTVLHQDWLNGKEYKCKVSNKGLPSSIEKTISKAKGQPREPQVYTLPPSREEMTKNQVSLWCLVKGFYPSDIAVEWESNGQPENNYKTTPPVLDSDGSFFLYSKLTVDKSRWQQGNVFSCSVMHEALHNHYTQKSLSLSGECGGGGSGGGGSDIVMTQSPSSLSASVGDKATITCRSTKSLLHSNGITYLYWYLQKPGKAPKLLIYQMSNLASGVPDRFSSSGSGTEFTLTISSVQPEDEGTYYCAQNLEIPRTFGQGTKLEIKRTPSHNSHQVPSAGGPTANSGTSGSQVQLQQSGGGLVKPGESVKISCAASGYTFTNYGMNWVKQAPGKGLKWMGWINTYTGESTYADDFKGRFTFSLETSASAAYLQINSLRPEDTAVYFCARFAIKGDYWGQGTTVTVSS
light: DIQMTQSPSSVSASVGDRVTITCRASQGISSWLAWYQQKPGKAPKLLIYAASSLQSGVPSRFSGSGSGTDFTLTISSLQPEDFATYYCLQANSFPPTFGGGTKVEIKRTVAAPSVFIFPPSDEQLKSGTASVVCLLNNFYPREAKVQWKVDNALQSGNSQESVTEQDSKDSTYSLSSTLTLSKADYEKHKVYACEVTHQGLSSPVTKSFNRGEC
notes: Anti-c-Met Fab / tandem Fc / anti-EpCAM scFv TFcBA; also called Antibody #13
In the case of B2, the dissociation constant Kd in test [2] is 4.98 nM; in test [3] it was 4.69 nM. In addition, the koff worked out at 0.00036 s⁻¹ in test [2] and 0.000323 s⁻¹ in test [3].

B3: Onartuzumab-39EGY4-cetuximab (bispecific antibody)
heavy: EVQLVESGGGLVQPGGSLRLSCAASGYTFTSYWLHWVRQAPGKGLEWVGMIDPSNSDTRFNPNFKDRFTISADTSKNTAYLQMNSLRAEDTAVYYCATYRSYVTPLDYWGQGTLVTVSSASTKGPSVFPLAPSSKSTSGGTAALGCLVKDYFPEPVTVSWNSGALTSGVHTFPAVLQSSGLYSLSSVVTVPSSSLGTQTYICNVNHKPSNTKVDKKVEPKSCDKTHTCPSCPAPEFLGGPSVFLFPPKPKDTLMISRTPEVTCVVVDVSQEDPEVQFNWYVDGVEVHNAKTKPREEQFNSKYRVVSVLTVLHQDWLNGKEYKCKVSNKGLPSSIEKTISKAKGQPREPQVYTLPPSREEMTKNQVSLSCAVKGFYPSDIAVEWESNGQPENNYKTTPPVLDSDGSFFLVSKLTVDKSRWQQGNVFSCSVMHEALHNHYTQKSLSLSKSCDKTGGGGSGGGGSGGGGSGGGGSGGGGSGGGGSGGGGSGGGGSCPSCPAPEFLGGPSVFLFPPKPKDTLMISRTPEVTCVVVDVSQEDPEVQFNWYVDGVEVHNAKTKPREEQFNSDYRVVSVLTVLHQDWLNGKEYKCKVSNKGLPSSIEKTISKAKGQPREPQVYTLPPSREEMTKNQVSLWCLVKGFYPSDIAVEWESNGQPENNYKTTPPVLDSDGSFFLYSKLTVDKSRWQQGNVFSCSVMHEALHNHYTQKSLSLSGECGGGGSGGGGSQVQLVESGGGVVQPGESLRISCAVSGFSLTNYGVHWVRQAPGKGLEWLGVIWSGGNTDYNTPFTSRLTISKDNSKSTVYFQMNSLRAEDTAVYYCARALTYYDYEFAYWGQGTLVTVSSASTGGGGSGGGGSGGGGSGGGGSDIVLTQSPSSLSVTPGEKVTFTCRASQSIGTNIHWYQQKPGQSPKLLIKYASESISGVPSRFSGSGSGTDFTLTINSVEAEDAATYYCQQNNNWPTTFGQGTKLEIK
light: DIQMTQSPSSLSASVGDRVTITCKSSQSLLYTSSQKNYLAWYQQKPGKAPKLLIYWASTRESGVPSRFSGSGSGTDFTLTISSLQPEDFATYYCQQYYAYPWTFGQGTKVEIKRTVAAPSVFIFPPSDEQLKSGTASVVCLLNNFYPREAKVQWKVDNALQSGNSQESVTEQDSKDSTYSLSSTLTLSKADYEKHKVYACEVTHQGLSSPVTKSFNRGEC
notes: Anti-c-Met Fab / TFc 39E glycoform 4 / anti-EGFR cetuximab scFv
On to B3, for which binding with cMet-his [4] was put at a Kd of 0.9 nM.

B4: Onartuzumab-39EGY4-panitumumab (bispecific antibody)
heavy: EVQLVESGGGLVQPGGSLRLSCAASGYTFTSYWLHWVRQAPGKGLEWVGMIDPSNSDTRFNPNFKDRFTISADTSKNTAYLQMNSLRAEDTAVYYCATYRSYVTPLDYWGQGTLVTVSSASTKGPSVFPLAPSSKSTSGGTAALGCLVKDYFPEPVTVSWNSGALTSGVHTFPAVLQSSGLYSLSSVVTVPSSSLGTQTYICNVNHKPSNTKVDKKVEPKSCDKTHTCPSCPAPEFLGGPSVFLFPPKPKDTLMISRTPEVTCVVVDVSQEDPEVQFNWYVDGVEVHNAKTKPREEQFNSKYRVVSVLTVLHQDWLNGKEYKCKVSNKGLPSSIEKTISKAKGQPREPQVYTLPPSREEMTKNQVSLSCAVKGFYPSDIAVEWESNGQPENNYKTTPPVLDSDGSFFLVSKLTVDKSRWQQGNVFSCSVMHEALHNHYTQKSLSLSKSCDKTGGGGSGGGGSGGGGSGGGGSGGGGSGGGGSGGGGSGGGGSCPSCPAPEFLGGPSVFLFPPKPKDTLMISRTPEVTCVVVDVSQEDPEVQFNWYVDGVEVHNAKTKPREEQFNSDYRVVSVLTVLHQDWLNGKEYKCKVSNKGLPSSIEKTISKAKGQPREPQVYTLPPSREEMTKNQVSLWCLVKGFYPSDIAVEWESNGQPENNYKTTPPVLDSDGSFFLYSKLTVDKSRWQQGNVFSCSVMHEALHNHYTQKSLSLSGECGGGGSGGGGSQVQLQESGPGLVKPSETLSLTCTVSGGSVSSGDYYWTWIRQSPGKGLEWIGHIYYSGNTNYNPSLKSRLTISIDTSKTQFSLKLSSVTAADTAIYYCVRDRVTGAFDIWGQGTMVTSSASTGGGGSGGGGSGGGGSGGGGSDIQMTQSPSSLSASVGDRVTITCQASQDISNYLNWYQQKPGKAPKLLIYDASNLETGVPSRFSGSGSGTDFTFTISSLQPEDEATYFCQHFDHLPLAFGGGTKVEIKRT
light: DIQMTQSPSSLSASVGDRVTITCKSSQSLLYTSSQKNYLAWYQQKPGKAPKLLIYWASTRESGVPSRFSGSGSGTDFTLTISSLQPEDFATYYCQQYYAYPWTFGQGTKVEIKRTVAAPSVFIFPPSDEQLKSGTASVVCLLNNFYPREAKVQWKVDNALQSGNSQESVTEQDSKDSTYSLSSTLTLSKADYEKHKVYACEVTHQGLSSPVTKSFNRGEC
notes: Anti-c-Met Fab / TFc 39E glycoform 4 / anti-EGFR panitumumab scFv
Consider B4, for which the Kd with cMet-his [4] was found to be 1.6 nM.

B5: Onartuzumab (antibody)
chain 1: not shown
chain 2: DIQMTQSPSSLSASVGDRVTITCKSSQSLLYTSSQKNYLAWYQQKPGKAPKLLIYWASTRESGVPSRFSGSGSGTDFTLTISSLQPEDFATYYCQQYYAYPWTFGQGTKVEIKRTVAAPSVFIFPPSDEQLKSGTASVVCLLNNFYPREAKVQWKVDNALQSGNSQESVTEQDSKDSTYSLSSTLTLSKADYEKHKVYACEVTHQGLSSPVTKSFNRGEC
chain 3: not shown
B5 had a Kd with cMet-his [4] of 1.2 nM.
